Read-outs that look alike come from different tables or passages of the source.
How the values were obtained:
Assay in all cases: cell-based or functional assay
[1] = molecular target: T1, recombinant human TFPI (tissue factor pathway inhibitor) (human, UniProt P10646 29-304)
[2] = molecular target: TFPI in FVIII-deficient plasma (sample dilution)
[3] = molecular target: T1, recombinant human TFPI (tissue factor …); remark: listed apart in the source
[4] = molecular target: T1, recombinant human TFPI (tissue factor …); remark: listed apart in the source
[5] = molecular target: T1, recombinant human TFPI (tissue factor …); remark: listed apart in the source
[6] = molecular target: T1, recombinant human TFPI (tissue factor …); remark: listed apart in the source
[7] = molecular target: T1, recombinant human TFPI (tissue factor …); remark: listed apart in the source
[8] = molecular target: T1, recombinant human TFPI (tissue factor …); remark: listed apart in the source
[9] = molecular target: T1, recombinant human TFPI (tissue factor …); remark: listed apart in the source
[10] = molecular target: T1, recombinant human TFPI (tissue factor …); remark: listed apart in the source
[11] = molecular target: T1, recombinant human TFPI (tissue factor …); remark: listed apart in the source
[12] = molecular target: T1, recombinant human TFPI (tissue factor …); remark: listed apart in the source

B1: clone 1023 (antibody, V domains shown)
VH: EVQLVESGGGLVKPGGSLRLSCAASGFTFSSYAMNWVRQAPGKGLEWVGTITTGGSYTYYADSVDGRFTISRDNAKNSLYLQMNSLRAEDTAVYYCARQDGNFLMDYWGQGTLVTVSS
VL: DVVMTQTPLSLPVTLGQPASISCKSSQSLLDIDGKTYLNWLQQRPGQSPKRLIYLVSKLDSGVPDRFTGSGSGTDFTLKISRVEAEDVGVYYCWQGTHFPFTFGQGTKVEIKR
notes: scFv on yeast at selection; human IgG4/kappa IgG as purified
- effect of inhibiting TFPI, FXa activity assay, Ab 10 nM [1]: ~84%
- effect of inhibiting TFPI, FXa activity assay, Ab 20 nM [1]: ~86%
- ETP vs negative control, thrombin generation assay, Ab 2.5 nM [2]: ~309%
- thrombin peak vs blank, thrombin generation assay, Ab 2.5 nM [2]: ~401%
- A405, TF/FVIIa/FX complex assay, Ab 1.56 nM [3]: 0.143
- A405, TF/FVIIa/FX complex assay, Ab 3.13 nM [3]: 0.152
- A405, TF/FVIIa/FX complex assay, Ab 6.25 nM [3]: 0.168
- A405, TF/FVIIa/FX complex assay, Ab 12.5 nM [3]: 0.228
- A405, TF/FVIIa/FX complex assay, Ab 25 nM [3]: 0.795
- A405, TF/FVIIa/FX complex assay, Ab 50 nM [3]: 0.947
- A405, TF/FVIIa/FX complex assay, Ab 100 nM [3]: 0.951
- % of Normalized, TF/FVIIa/FX complex assay, Ab 1.56 nM [4]: 15.6%
- % of Normalized, TF/FVIIa/FX complex assay, Ab 3.13 nM [4]: 16.5%
- % of Normalized, TF/FVIIa/FX complex assay, Ab 6.25 nM [4]: 18.2%
- % of Normalized, TF/FVIIa/FX complex assay, Ab 12.5 nM [4]: 24.8%
- % of Normalized, TF/FVIIa/FX complex assay, Ab 25 nM [4]: 86.5%
- % of Normalized, TF/FVIIa/FX complex assay, Ab 50 nM [4]: 103%
- % of Normalized, TF/FVIIa/FX complex assay, Ab 100 nM [4]: 104%
- A405, TF/FVIIa/FX complex assay, Ab 1.56 nM [5]: 0.153
- A405, TF/FVIIa/FX complex assay, Ab 3.13 nM [5]: 0.167
- A405, TF/FVIIa/FX complex assay, Ab 6.25 nM [5]: 0.19
- A405, TF/FVIIa/FX complex assay, Ab 12.5 nM [5]: 0.259
- A405, TF/FVIIa/FX complex assay, Ab 25 nM [5]: 0.923
- A405, TF/FVIIa/FX complex assay, Ab 50 nM [5]: 0.905
- A405, TF/FVIIa/FX complex assay, Ab 100 nM [5]: 0.935
- % of Normalized, TF/FVIIa/FX complex assay, Ab 1.56 nM [6]: 16%
- % of Normalized, TF/FVIIa/FX complex assay, Ab 3.13 nM [6]: 17.5%
- % of Normalized, TF/FVIIa/FX complex assay, Ab 6.25 nM [6]: 19.9%
- % of Normalized, TF/FVIIa/FX complex assay, Ab 12.5 nM [6]: 27.1%
- % of Normalized, TF/FVIIa/FX complex assay, Ab 25 nM [6]: 96.6%
- % of Normalized, TF/FVIIa/FX complex assay, Ab 50 nM [6]: 94.8%
- % of Normalized, TF/FVIIa/FX complex assay, Ab 100 nM [6]: 98%
- A405, TF/FVIIa/FX complex assay, Ab 1.56 nM [7]: 0.135
- A405, TF/FVIIa/FX complex assay, Ab 3.13 nM [7]: 0.16
- A405, TF/FVIIa/FX complex assay, Ab 6.25 nM [7]: 0.185
- A405, TF/FVIIa/FX complex assay, Ab 12.5 nM [7]: 0.29
- A405, TF/FVIIa/FX complex assay, Ab 25 nM [7]: 0.914
- A405, TF/FVIIa/FX complex assay, Ab 50 nM [7]: 0.938
- A405, TF/FVIIa/FX complex assay, Ab 100 nM [7]: 0.939
- % of Normalized, TF/FVIIa/FX complex assay, Ab 1.56 nM [8]: 14.7%
- % of Normalized, TF/FVIIa/FX complex assay, Ab 3.13 nM [8]: 17.5%
- % of Normalized, TF/FVIIa/FX complex assay, Ab 6.25 nM [8]: 20.2%
- % of Normalized, TF/FVIIa/FX complex assay, Ab 12.5 nM [8]: 31.6%
- % of Normalized, TF/FVIIa/FX complex assay, Ab 25 nM [8]: 99.8%
- % of Normalized, TF/FVIIa/FX complex assay, Ab 50 nM [8]: 102%
- % of Normalized, TF/FVIIa/FX complex assay, Ab 100 nM [8]: 103%
- A405, TF/FVIIa/FX complex assay (FX 5 nM), Ab 1.56 nM [9]: 0.05
- A405, TF/FVIIa/FX complex assay (FX 5 nM), Ab 3.13 nM [9]: 0.048
- A405, TF/FVIIa/FX complex assay (FX 5 nM), Ab 6.25 nM [9]: 0.056
- A405, TF/FVIIa/FX complex assay (FX 5 nM), Ab 12.5 nM [9]: 0.079
- A405, TF/FVIIa/FX complex assay (FX 5 nM), Ab 25 nM [9]: 0.216
- A405, TF/FVIIa/FX complex assay (FX 5 nM), Ab 50 nM [9]: 0.652
- A405, TF/FVIIa/FX complex assay (FX 5 nM), Ab 100 nM [9]: 0.81
- % of Normalized, TF/FVIIa/FX complex assay (FX 5 nM), Ab 1.56 nM [10]: 6.2%
- % of Normalized, TF/FVIIa/FX complex assay (FX 5 nM), Ab 3.13 nM [10]: 5.9%
- % of Normalized, TF/FVIIa/FX complex assay (FX 5 nM), Ab 6.25 nM [10]: 6.9%
- % of Normalized, TF/FVIIa/FX complex assay (FX 5 nM), Ab 12.5 nM [10]: 9.7%
- % of Normalized, TF/FVIIa/FX complex assay (FX 5 nM), Ab 25 nM [10]: 26.6%
- % of Normalized, TF/FVIIa/FX complex assay (FX 5 nM), Ab 50 nM [10]: 80.5%
- % of Normalized, TF/FVIIa/FX complex assay (FX 5 nM), Ab 100 nM [10]: 100%
- A405, TF/FVIIa/FX complex assay, Ab 1.56 nM [11]: 0.041
- A405, TF/FVIIa/FX complex assay, Ab 3.13 nM [11]: 0.051
- A405, TF/FVIIa/FX complex assay, Ab 6.25 nM [11]: 0.071
- A405, TF/FVIIa/FX complex assay, Ab 12.5 nM [11]: 0.088
- A405, TF/FVIIa/FX complex assay, Ab 25 nM [11]: 0.371
- A405, TF/FVIIa/FX complex assay, Ab 50 nM [11]: 0.681
- A405, TF/FVIIa/FX complex assay, Ab 100 nM [11]: 0.846
- % of Normalized, TF/FVIIa/FX complex assay, Ab 1.56 nM [12]: 4.8%

Reference: patent US20180030151A1 (MOGAM INSTITUTE FOR BIOMEDICAL RESEARCH, published 2018)
